Results taken from US20090285840A1, “METHODS FOR TREATING PATHOLOGICAL NEOVASCULARIZATION” (New York Society for the Ruptured and Crippled Maintaining …, priority 2008, published 2009).

How the values were obtained:
[1] = tested on: ADAM9; assay: ADAM9 expression in mouse embryonic fibroblasts treated with H2O2 (immunoblot); assay type: cell-based; settings: MEF cells from wildtype mice, H2O2 200 μM (highest concentration), 6 hrs
[2] = tested on: EphB4; assay: Alkaline phosphatase shedding assay of transiently expressed EphB4 in mouse embryonic fibroblasts treated with H2O2; assay type: cell-based
Experimental: Stimulation of ADAM9-dependent shedding. […] Alkaline phosphatase shedding assays were performed as described (Weskamp et al., 1996, Cell Biol. 132:717-726; Zheng et al., 2002, J. BioI. Chem. 277:42463-42470) in (mouse embryonic fibroblasts) MEF cells and in pig aortic endothelial cells (PAE cells, kindly provided by Dr. Shahin Rafii). Reactive oxygen species (ROS) assays were performed using a modified version of the procedure reported by Sung et al., 2006, Cancer Res 66:9519-26). Specifically, 20 hours post-transfection, cells maintained at 50-60% culture density were washed twice with OptiMem over the course of 1 hour. […] The resulting supernatants and lysates were collected and assayed in triplicate for alkaline phosphatase activity as described previously (Sahin et al., 2006, “A sensitive method to monitor ectodomain shedding of ligands of the epidermal growth factor receptor,” In Epidermal Growth Factor: Methods and Protocols, In P. J. B. and T. B. Patel eds., Vol. 327, p. 99-113., Humana Press Inc., Totowa, N.J.; Sahin et al., J. Cell Biol. 164:769779; Zheng et al., 2002, J. BioI. Chem. 277:42463-42470). All data presented here representative example from at least three independent assays.
The shedding of EphB4 from Adam9 −/− cells could be rescued by transfection with ADAM9, however, the resulting activity could not be further enhanced by treatment with H2O2. […]

[3] = target: T1, alkaline phosphatase tagged CD34 (amino acids 31-385) (UniProt Q64314)
T1 sequence: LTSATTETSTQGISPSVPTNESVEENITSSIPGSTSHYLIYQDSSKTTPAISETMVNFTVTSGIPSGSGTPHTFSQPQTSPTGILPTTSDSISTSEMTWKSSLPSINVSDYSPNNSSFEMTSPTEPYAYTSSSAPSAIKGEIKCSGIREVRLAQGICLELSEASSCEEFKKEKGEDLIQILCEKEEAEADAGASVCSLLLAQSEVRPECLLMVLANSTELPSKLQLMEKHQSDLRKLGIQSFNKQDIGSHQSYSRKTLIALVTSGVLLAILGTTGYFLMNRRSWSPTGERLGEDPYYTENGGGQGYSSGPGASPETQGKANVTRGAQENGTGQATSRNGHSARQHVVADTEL

[4] = target: alkaline phosphatase tagged CD36 (UniProt P05187)
[5] = target: alkaline phosphatase tagged CD40 (amino acids 24-278) (UniProt P27512)
Chain of UniProt P27512 (P27512 24-278): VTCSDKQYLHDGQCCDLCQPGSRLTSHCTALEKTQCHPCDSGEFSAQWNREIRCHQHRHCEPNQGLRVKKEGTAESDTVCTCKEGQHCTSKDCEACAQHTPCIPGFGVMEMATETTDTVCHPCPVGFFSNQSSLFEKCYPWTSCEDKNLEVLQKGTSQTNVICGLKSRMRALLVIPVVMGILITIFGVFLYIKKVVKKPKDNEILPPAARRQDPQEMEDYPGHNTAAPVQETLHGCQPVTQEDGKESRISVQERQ

[6] = target: T2, alkaline phosphatase tagged E-Selectin (amino acids 31-612) (UniProt Q00690)
T2 sequence: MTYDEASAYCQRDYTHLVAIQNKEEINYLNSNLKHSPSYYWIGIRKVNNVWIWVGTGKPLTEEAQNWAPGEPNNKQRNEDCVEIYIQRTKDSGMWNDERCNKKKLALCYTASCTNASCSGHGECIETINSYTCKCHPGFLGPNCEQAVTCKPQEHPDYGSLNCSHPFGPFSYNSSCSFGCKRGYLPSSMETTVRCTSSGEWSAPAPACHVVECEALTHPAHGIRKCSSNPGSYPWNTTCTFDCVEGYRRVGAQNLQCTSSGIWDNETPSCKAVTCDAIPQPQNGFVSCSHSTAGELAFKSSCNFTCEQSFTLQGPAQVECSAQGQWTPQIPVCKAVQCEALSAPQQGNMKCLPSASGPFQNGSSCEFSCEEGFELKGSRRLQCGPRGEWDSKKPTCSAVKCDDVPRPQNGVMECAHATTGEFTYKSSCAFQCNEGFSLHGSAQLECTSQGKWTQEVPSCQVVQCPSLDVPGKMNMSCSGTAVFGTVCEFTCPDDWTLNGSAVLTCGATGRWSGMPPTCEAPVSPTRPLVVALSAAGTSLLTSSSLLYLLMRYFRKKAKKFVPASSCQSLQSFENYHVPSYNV

[7] = target: alkaline phosphatase tagged EphB4 (UniProt P05187)
[8] = target: alkaline phosphatase tagged EphrinB2 (UniProt P05187)
[9] = target: alkaline phosphatase tagged FLK-1 (amino acids 605-859) (UniProt P35918)
Chain of UniProt P35918 (P35918 605-859): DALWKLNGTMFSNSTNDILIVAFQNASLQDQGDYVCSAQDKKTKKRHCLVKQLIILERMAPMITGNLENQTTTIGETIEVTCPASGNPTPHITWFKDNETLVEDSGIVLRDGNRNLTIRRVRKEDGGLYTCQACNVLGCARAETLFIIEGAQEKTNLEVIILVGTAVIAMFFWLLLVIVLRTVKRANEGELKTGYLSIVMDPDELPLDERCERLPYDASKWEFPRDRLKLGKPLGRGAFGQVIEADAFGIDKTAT

[10] = target: alkaline phosphatase tagged ICAM-1 (amino acids 26-532) (UniProt P13597)
Chain of UniProt P13597 (P13597 26-532): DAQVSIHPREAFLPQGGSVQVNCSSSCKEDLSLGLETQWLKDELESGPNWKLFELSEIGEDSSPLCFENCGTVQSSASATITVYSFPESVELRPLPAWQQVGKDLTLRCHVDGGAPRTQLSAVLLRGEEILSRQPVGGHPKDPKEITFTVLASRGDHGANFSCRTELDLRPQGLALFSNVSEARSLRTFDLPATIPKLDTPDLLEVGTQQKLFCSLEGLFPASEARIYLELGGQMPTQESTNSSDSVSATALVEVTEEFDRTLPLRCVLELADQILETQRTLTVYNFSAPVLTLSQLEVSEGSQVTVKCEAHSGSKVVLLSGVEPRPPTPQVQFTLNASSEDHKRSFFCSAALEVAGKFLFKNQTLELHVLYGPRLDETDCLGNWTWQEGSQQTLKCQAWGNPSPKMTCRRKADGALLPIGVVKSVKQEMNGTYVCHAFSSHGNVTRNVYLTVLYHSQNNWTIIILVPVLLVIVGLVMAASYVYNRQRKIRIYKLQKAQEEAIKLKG

[11] = target: alkaline phosphatase tagged Tie-2 (amino acids 580-833) (UniProt Q02858)
Chain of UniProt Q02858 (Q02858 580-833): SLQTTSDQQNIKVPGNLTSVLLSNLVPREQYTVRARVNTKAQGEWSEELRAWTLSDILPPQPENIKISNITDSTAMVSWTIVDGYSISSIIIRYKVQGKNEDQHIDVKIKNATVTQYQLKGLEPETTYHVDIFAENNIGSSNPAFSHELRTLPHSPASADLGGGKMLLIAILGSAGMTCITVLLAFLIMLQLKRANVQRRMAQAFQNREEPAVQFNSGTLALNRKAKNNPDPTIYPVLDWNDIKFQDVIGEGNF

[12] = target: T3, alkaline phosphatase tagged VCAM-1 (amino acids 28-739) (UniProt P29533)
T3 sequence: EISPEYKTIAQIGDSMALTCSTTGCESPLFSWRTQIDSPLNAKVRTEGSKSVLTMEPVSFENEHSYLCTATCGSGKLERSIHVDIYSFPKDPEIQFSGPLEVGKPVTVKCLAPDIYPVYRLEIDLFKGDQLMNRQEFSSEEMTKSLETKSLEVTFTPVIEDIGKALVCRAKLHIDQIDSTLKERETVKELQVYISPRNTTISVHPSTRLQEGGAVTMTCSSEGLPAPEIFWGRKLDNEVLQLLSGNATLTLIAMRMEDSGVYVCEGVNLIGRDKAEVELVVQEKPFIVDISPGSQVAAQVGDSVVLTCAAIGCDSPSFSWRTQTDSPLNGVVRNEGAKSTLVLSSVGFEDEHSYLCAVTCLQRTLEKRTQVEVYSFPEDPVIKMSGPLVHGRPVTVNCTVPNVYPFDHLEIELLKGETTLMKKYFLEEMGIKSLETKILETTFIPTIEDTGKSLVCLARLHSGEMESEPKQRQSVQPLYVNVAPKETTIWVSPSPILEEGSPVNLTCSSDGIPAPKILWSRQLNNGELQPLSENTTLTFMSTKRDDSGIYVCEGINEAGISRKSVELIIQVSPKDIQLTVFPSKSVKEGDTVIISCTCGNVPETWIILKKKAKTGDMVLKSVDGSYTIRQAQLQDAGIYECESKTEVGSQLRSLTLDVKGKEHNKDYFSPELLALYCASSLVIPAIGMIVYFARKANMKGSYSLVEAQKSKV

[13] = target: alkaline phosphatase tagged VE-Cadherin (UniProt P05187)

Chain of ADAM9 (wild type, overexpressed from an expression construct) (Q13443 whole entry): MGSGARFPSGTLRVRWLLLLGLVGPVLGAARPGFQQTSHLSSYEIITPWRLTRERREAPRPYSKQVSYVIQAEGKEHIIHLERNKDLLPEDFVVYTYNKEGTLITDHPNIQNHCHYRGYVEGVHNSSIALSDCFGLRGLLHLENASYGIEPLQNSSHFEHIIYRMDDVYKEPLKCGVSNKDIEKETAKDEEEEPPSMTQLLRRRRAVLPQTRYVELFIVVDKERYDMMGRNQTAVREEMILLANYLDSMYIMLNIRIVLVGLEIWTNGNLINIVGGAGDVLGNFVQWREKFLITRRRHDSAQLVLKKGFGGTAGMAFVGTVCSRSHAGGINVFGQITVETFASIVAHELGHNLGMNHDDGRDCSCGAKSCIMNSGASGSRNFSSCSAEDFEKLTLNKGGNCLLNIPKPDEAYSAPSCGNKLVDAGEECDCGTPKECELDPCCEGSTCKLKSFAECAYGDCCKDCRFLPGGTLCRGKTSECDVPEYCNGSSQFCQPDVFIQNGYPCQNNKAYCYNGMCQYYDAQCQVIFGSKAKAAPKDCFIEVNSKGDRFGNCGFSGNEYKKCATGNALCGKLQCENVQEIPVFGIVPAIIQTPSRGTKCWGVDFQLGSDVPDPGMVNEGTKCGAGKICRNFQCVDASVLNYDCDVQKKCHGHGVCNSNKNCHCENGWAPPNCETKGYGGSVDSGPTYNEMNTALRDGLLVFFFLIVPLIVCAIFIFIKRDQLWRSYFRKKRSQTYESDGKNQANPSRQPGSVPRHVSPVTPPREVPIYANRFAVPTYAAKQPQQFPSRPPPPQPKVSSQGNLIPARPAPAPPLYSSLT

Molecule	ADAM9 expression [1]	EphB4 shedding ([2]; Adam9 −/− cells expressing EphB4, 100 or 200 μM H2O2)	shedding of transiently expressed EphB4 ([2]; wt MEF cells, 100 or 200 μM H2O2 for 6 hrs)	shedding (alkaline phosphatase activity released into the supernatant) [3]	shedding (alkaline phosphatase activity released into the supernatant) [4]	shedding (alkaline phosphatase activity released into the supernatant) [5]	shedding (alkaline phosphatase activity released into the supernatant) [6]	shedding (alkaline phosphatase activity released into the supernatant) [7]	shedding (alkaline phosphatase activity released into the supernatant) [8]	shedding (alkaline phosphatase activity released into the supernatant) [9]	shedding (alkaline phosphatase activity released into the supernatant) [10]	shedding (alkaline phosphatase activity released into the supernatant) [11]	shedding (alkaline phosphatase activity released into the supernatant) [12]	shedding (alkaline phosphatase activity released into the supernatant) [13]
OO [H2O2]	increase in ADAM9 expression	no increase in EphB4 shedding	strong increase in the shedding											
ADAM9 (wild type, overexpressed from an expression construct)				Overexpression of ADAM9 did not increase the shedding of E-selectin, ICAM-1, Ephrin B2, CD34 and CD36 compared to ADAM9 E>A, at least under the conditions used here	Overexpression of ADAM9 did not increase the shedding of E-selectin, ICAM-1, Ephrin B2, CD34 and CD36 compared to ADAM9 E>A, at least under the conditions used here	overexpression of ADAM9 increased the shedding of CD40, EphB4, Flk1, Tie-2, VE-cadherin and VCAM compared to cells overexpressing ADAM9 E>A together with these substrates	Overexpression of ADAM9 did not increase the shedding of E-selectin, ICAM-1, Ephrin B2, CD34 and CD36 compared to ADAM9 E>A, at least under the conditions used here	overexpression of ADAM9 increased the shedding of CD40, EphB4, Flk1, Tie-2, VE-cadherin and VCAM compared to cells overexpressing ADAM9 E>A together with these substrates	Overexpression of ADAM9 did not increase the shedding of E-selectin, ICAM-1, Ephrin B2, CD34 and CD36 compared to ADAM9 E>A, at least under the conditions used here	overexpression of ADAM9 increased the shedding of CD40, EphB4, Flk1, Tie-2, VE-cadherin and VCAM compared to cells overexpressing ADAM9 E>A together with these substrates	Overexpression of ADAM9 did not increase the shedding of E-selectin, ICAM-1, Ephrin B2, CD34 and CD36 compared to ADAM9 E>A, at least under the conditions used here	overexpression of ADAM9 increased the shedding of CD40, EphB4, Flk1, Tie-2, VE-cadherin and VCAM compared to cells overexpressing ADAM9 E>A together with these substrates	overexpression of ADAM9 increased the shedding of CD40, EphB4, Flk1, Tie-2, VE-cadherin and VCAM compared to cells overexpressing ADAM9 E>A together with these substrates	overexpression of ADAM9 increased the shedding of CD40, EphB4, Flk1, Tie-2, VE-cadherin and VCAM compared to cells overexpressing ADAM9 E>A together with these substrates
